{
  "source": "IntAct's records for PubMed 31515488",
  "parents": {"B1": {"name": "U3 small nucleolar RNA-associated protein 14 homolog C (Homo sapiens), Q5TAP6 (parent)", "chain": "MNVNQVAENLALSHQEELVDLPKNYPLSENEDEGDSDGERKHQKLLEAIISLDGKNRRKLAERSEASLKVSEFSVSSEGSGEKLGLADLLEPVKTSSSLATVKKQLNRVKSKKVVELPLNKEKIEQIHREVAFSKTSQVLSKWDPIILKNQQAEQLVFPLGKEQPAIAPIEHALSGWKARTPLEQEIFNLLHKNKQPVTDPLLTPMEKASLQAMSLEEAKMHRAELQRARALQSYYEAKARKEKKIKSKKYHKVVKKGKAKKALKEFEQLQKVNPTVALEEMEKIENARMMERMSLKHQNSGKWAKSKAIMAKYDLEARQAMQEQLAKNKELTQKLQVASESEEEEGGTEVEELLVPHVANEVQMNVDGPNPWMFRSCTSDTKEAATQEDPEQVPELAAHEVSASEAEERPVAEEEILLREFEERQSLRKRSELNQDAEPASSQETKDSSSQEVLSELRALSQKLKEKHQSRKQKASSEGTVPQVQREEPAPEEAEPLLLQRSERVQTLEELEELGKEDCFQNKELPRPVLEGQQSERTPNNRPDAPKEKKEKEQLINLQNFLTTQSPSVRSLAVPTIIEELEDEEERDQRQMIKEAFAGDDVIRDFLKEKREAVEASKPKDVDLTLPGWGEWGGVGLKPSAKKRRQFLIKAPEGPPRKDKNLPNVIISEKRNIHAAAHQVQVLPYPFTHHRQFERTIQTPIGSTWNTQRAFQKLTTPKVVTKPGHIIKPIKAEDVGYQSSSRSDLPVIQRNPKRITTRHNKEEKL", "partner": "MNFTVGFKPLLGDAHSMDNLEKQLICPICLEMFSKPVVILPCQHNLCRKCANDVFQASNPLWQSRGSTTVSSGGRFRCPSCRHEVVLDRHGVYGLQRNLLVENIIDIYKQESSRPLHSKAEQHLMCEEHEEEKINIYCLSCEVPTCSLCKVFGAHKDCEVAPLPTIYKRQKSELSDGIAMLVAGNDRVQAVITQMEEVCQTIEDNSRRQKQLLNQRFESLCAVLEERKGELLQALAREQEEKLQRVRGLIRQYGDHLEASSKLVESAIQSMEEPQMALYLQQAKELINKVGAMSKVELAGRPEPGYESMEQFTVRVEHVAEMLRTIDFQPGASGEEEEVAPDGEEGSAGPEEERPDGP"}, "B2": {"name": "Coiled-coil domain-containing protein 172 (Homo sapiens), P0C7W6 (parent)", "chain": "MSLESLFQHIIFTEHQAEESRRLMREVRSEITRCREKIKKATEELNEEKIKLESKVQQFFEKSFFLQLLKAHENALEKQYSEITNHRNMLLQTFEAIKKQMIEEEDKFIKEITDFNNDYEITKKRELLMKENVKIEISDLENQANMLKSEMKSMEHDSSQLNELQKQKSELIQELFTLQRKLKVFEDEENESICTTKYLEAEKIKISEKPQNDTECLRLKKELELYKEDDMESVYEALQTEIEFLELTLAQKDLQESK", "partner": "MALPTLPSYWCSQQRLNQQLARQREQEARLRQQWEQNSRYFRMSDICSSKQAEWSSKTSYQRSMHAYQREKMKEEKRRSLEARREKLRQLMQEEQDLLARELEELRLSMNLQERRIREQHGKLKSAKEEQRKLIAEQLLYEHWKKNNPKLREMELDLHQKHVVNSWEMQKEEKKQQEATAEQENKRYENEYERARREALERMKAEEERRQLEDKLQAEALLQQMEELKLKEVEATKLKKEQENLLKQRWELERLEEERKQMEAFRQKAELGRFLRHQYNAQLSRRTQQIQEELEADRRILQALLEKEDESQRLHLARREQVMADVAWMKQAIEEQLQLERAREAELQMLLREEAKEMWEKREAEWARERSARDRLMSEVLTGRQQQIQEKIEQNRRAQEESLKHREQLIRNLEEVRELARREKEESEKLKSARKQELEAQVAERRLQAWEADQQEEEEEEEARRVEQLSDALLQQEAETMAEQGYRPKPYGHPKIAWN"}, "B3": {"name": "Mediator of RNA polymerase II transcription subunit 18 (Homo sapiens), Q9BUE0 (parent)", "chain": "MEAPPVTMMPVTGGTINMMEYLLQGSVLDHSLESLIHRLRGLCDNMEPETFLDHEMVFLLKGQQASPFVLRARRSMDRAGAPWHLRYLGQPEMGDKNRHALVRNCVDIATSENLTDFLMEMGFRMDHEFVAKGHLFRKGIMKIMVYKIFRILVPGNTDSTEALSLSYLVELSVVAPAGQDMVSDDMKNFAEQLKPLVHLEKIDPKRLM", "partner": "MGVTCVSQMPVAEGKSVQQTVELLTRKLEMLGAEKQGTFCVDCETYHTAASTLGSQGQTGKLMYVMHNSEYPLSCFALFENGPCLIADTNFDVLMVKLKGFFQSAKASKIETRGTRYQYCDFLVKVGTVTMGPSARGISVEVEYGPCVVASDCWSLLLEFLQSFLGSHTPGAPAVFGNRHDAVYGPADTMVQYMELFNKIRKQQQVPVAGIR"}, "B4": {"name": "Sulfotransferase 1A1 (Homo sapiens), P50225 (parent)", "chain": "MELIQDTSRPPLEYVKGVPLIKYFAEALGPLQSFQARPDDLLISTYPKSGTTWVSQILDMIYQGGDLEKCHRAPIFMRVPFLEFKAPGIPSGMETLKDTPAPRLLKTHLPLALLPQTLLDQKVKVVYVARNAKDVAVSYYHFYHMAKVHPEPGTWDSFLEKFMVGEVSYGSWYQHVQEWWELSRTHPVLYLFYEDMKENPKREIQKILEFVGRSLPEETVDFVVQHTSFKEMKKNPMTNYTTVPQEFMDHSISPFMRKGMAGDWKTTFTVAQNERFDADYAEKMAGCSLSFRSEL", "partner": "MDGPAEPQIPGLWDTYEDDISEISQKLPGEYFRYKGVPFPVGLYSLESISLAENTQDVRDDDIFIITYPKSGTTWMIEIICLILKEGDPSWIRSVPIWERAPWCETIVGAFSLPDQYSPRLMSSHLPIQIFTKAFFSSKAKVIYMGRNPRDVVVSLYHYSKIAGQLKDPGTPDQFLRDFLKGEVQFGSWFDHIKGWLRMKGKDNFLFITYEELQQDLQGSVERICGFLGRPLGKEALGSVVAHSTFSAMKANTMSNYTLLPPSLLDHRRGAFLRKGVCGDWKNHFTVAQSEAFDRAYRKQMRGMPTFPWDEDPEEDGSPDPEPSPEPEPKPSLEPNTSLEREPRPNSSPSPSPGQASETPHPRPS"}, "B5": {"name": "Putative RNA-binding protein Luc7-like 2 (Homo sapiens), Q9Y383 (parent)", "chain": "MSAQAQMRAMLDQLMGTSRDGDTTRQRIKFSDDRVCKSHLLNCCPHDVLSGTRMDLGECLKVHDLALRADYEIASKEQDFFFELDAMDHLQSFIADCDRRTEVAKKRLAETQEEISAEVAAKAERVHELNEEIGKLLAKVEQLGAEGNVEESQKVMDEVEKARAKKREAEEVYRNSMPASSFQQQKLRVCEVCSAYLGLHDNDRRLADHFGGKLHLGFIEIREKLEELKRVVAEKQEKRNQERLKRREEREREEREKLRRSRSHSKNPKRSRSREHRRHRSRSMSRERKRRTRSKSREKRHRHRSRSSSRSRSRSHQRSRHSSRDRSRERSKRRSSKERFRDQDLASCDRDRSSRDRSPRDRDRKDKKRSYESANGRSEDRRSSEEREAGEI"}},
  "data": [
    {"variants_of": "B1", "settings": "with tri54_human TRIM54, Q9BYV2", "values": [
      {"variant": "T101A", "effect of a mutation on the interaction": "disrupting interaction strength"},
      {"variant": "V109D", "effect of a mutation on the interaction": "with no effect"},
      {"variant": "I170V", "effect of a mutation on the interaction": "with no effect"},
      {"variant": "K247E", "effect of a mutation on the interaction": "with no effect"},
      {"variant": "V570M", "effect of a mutation on the interaction": "with no effect"},
      {"variant": "A652T", "effect of a mutation on the interaction": "with no effect"},
      {"variant": "R672H", "effect of a mutation on the interaction": "with no effect"}
    ]},
    {"variants_of": "B2", "settings": "with tchp_human TCHP", "values": [
      {"variant": "I10V", "effect of a mutation on the interaction": "with no effect"}
    ]},
    {"variants_of": "B3", "settings": "with med20_human MED20, Q9H944", "values": [
      {"variant": "M19V", "effect of a mutation on the interaction": "with no effect"}
    ]},
    {"variants_of": "B4", "settings": "with st2b1_human SULT2B1, O00204", "values": [
      {"variant": "V223M", "effect of a mutation on the interaction": "with no effect"}
    ]},
    {"variants_of": "B5", "settings": "with nfya_human NFYA", "values": [
      {"variant": "K368Q", "effect of a mutation on the interaction": "with no effect"}
    ]},
    {"variants_of": "B5", "settings": "with srsf6_human SRSF6, Q13247", "values": [
      {"variant": "K368Q", "effect of a mutation on the interaction": "with no effect"}
    ]}
  ]
}
